Measurements taken from patent US20230272011A1 (AVACTA LIFE SCIENCES, published 2023).

Key:
human serum albumin [1] = target: T1, human serum albumin (human, UniProt P02768 25-609); assay: BLI (Octet), biotinylated albumin on SA sensor, pH 6.0
T1 construct: mature; Bought protein; biotinylated in the Octet and HTRF assays; also called HSA; HuSA
Description: (§1) Biotinylated antigen was captured onto SA sensors at 1 μg/ml for 600 seconds in a buffer comprising PBS-T (0.01% Tween 20)+1% casein at either pH 6.0 or 7.4. Association was carried out for 300 seconds and dissociation for 600 seconds, and regeneration was performed using 10 mM glycine pH 1.5 (GE Healthcare) for 3×5 seconds. All steps were carried out at 1000 rpm and 25° C. Purified AFFIMER® polypeptide in two-fold serial dilutions was analyzed at a starting concentration of approximately 10× K_{D value}. Kinetics analyses were carried out using the Octet data analysis software, subtracting the reference sensor (loaded with antigen), aligning the Y-axis to baseline, and using inter-step correction to align association to dissociation. Savitzky-Golay filtering was applied and the data processed. Analysis of the data was carried out with a 1:1 model, global fit, Rₘₐₓ unlinked by sensor.

cynomolgus serum albumin [2] = target: T2, cynomolgus serum albumin (cynomolgus); assay: as above
T2 construct: also called CSA; cyno serum albumin
T2 sequence (A2V9Z4 25-608): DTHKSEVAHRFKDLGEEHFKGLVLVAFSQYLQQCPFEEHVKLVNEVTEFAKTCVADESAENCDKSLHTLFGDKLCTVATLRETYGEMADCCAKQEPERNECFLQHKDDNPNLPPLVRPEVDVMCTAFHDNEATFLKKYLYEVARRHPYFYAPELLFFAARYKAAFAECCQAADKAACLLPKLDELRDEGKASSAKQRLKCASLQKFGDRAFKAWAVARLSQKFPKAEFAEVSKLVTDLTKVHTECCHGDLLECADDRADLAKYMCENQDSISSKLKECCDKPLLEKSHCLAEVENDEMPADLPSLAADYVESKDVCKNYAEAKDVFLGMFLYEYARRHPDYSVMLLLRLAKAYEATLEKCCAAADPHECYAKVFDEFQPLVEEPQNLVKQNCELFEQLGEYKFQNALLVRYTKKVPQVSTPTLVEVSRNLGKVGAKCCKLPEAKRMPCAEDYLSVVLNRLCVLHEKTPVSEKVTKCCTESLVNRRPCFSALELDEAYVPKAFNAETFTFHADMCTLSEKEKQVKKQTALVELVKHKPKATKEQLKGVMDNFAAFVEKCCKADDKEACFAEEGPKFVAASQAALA
Description: as §1

mouse serum albumin [3] = target: T3, mouse serum albumin (mouse, UniProt P07724 25-608); assay: as above
T3 construct: also called MSA
T3 sequence (P07724 25-608 limits assumed): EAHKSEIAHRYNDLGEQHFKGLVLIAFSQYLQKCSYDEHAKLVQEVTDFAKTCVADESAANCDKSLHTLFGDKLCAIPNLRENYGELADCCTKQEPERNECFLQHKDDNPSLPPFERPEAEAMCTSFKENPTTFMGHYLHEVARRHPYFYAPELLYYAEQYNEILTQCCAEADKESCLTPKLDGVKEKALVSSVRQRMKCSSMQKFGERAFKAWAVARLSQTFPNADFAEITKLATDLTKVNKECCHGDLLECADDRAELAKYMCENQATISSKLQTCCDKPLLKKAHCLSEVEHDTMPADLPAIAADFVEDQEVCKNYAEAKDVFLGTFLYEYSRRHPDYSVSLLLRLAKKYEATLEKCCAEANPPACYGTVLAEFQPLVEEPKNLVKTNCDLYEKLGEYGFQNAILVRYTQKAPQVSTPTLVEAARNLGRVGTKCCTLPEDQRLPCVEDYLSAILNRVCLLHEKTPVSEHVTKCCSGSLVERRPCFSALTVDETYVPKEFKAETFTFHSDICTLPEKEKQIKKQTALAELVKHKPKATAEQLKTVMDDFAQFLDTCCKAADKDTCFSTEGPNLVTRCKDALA
Description: as §1

canine serum albumin [4] = target: T4, canine serum albumin (canine, UniProt P49822 25-608); assay: binding ELISA on coated albumin, pH 6.0, panel 'Canine SA Binding at pH 6.0'
T4 sequence (P49822 25-608 limits assumed): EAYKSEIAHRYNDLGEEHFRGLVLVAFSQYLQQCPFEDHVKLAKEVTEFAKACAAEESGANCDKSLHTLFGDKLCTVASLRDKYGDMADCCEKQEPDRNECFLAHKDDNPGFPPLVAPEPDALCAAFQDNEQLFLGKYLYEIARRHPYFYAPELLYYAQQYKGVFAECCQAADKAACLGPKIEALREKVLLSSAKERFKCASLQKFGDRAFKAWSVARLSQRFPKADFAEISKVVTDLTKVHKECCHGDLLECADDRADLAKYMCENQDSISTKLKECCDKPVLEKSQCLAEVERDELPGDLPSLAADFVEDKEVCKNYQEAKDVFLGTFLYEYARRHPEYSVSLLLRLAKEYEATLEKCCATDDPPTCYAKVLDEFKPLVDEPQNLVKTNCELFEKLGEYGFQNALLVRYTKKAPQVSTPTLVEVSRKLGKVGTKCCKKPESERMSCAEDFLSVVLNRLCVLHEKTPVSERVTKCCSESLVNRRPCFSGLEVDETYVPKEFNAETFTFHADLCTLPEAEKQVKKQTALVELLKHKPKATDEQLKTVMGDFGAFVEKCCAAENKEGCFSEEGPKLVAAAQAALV
Description: (§2) Briefly, ELISA was performed as follow:
(§3) Human (Sigma-Aldrich); Cynomolgus and Mouse (Abcam); Equine (Abcam); Canine (Abcam); Mouse (Sigma-Aldrich); Rabbit (Sigma-Aldrich); Porcine (Sigma-Aldrich);, and Rat (Sigma-Aldrich) serum albumin were coated overnight on 96 well plates (Corning Costar) at 1 μg/ml in PBS at the appropriate pH (pH 6.0 or 7.4). Plates were saturated using 5% Casein (Sigma-Aldrich) buffer in PBS. […] Plates were then washed and AFFIMER® proteins were detected using a biotinylated polyclonal antibody anti-Cystatin (R&D System) for 90 minutes. After washing, streptavidin-HRP (Thermo Fisher Scientific) was added and incubated for 30 minutes.

human serum albumin [5] = target: T1, human serum albumin; assay: BLI (Octet), biotinylated albumin on SA sensor, pH 7.4
Description: as §1

cynomolgus serum albumin [6] = target: T2, cynomolgus serum albumin; assay: as above
Description: as §1

mouse serum albumin [7] = target: T3, mouse serum albumin; assay: as above
Description: as §1

human serum albumin [8] = target: T1, human serum albumin; assay: binding ELISA on coated albumin, pH 6.0, panel 'HSA Binding at pH 6.0'
Description: as §2, §3

human serum albumin [9] = target: T1, human serum albumin; assay: Octet biolayer interferometry, biotinylated albumin on SA sensors, pH 7.4
Description: as §1

cynomolgus serum albumin [10] = target: T2, cynomolgus serum albumin; assay: as above
Description: as §1

mouse serum albumin [11] = target: T3, mouse serum albumin; assay: as above
Description: as §1

human serum albumin [12] = target: T1, human serum albumin; assay: Octet biolayer interferometry, biotinylated albumin on SA sensors, pH 6.0
Description: as §1

cynomolgus serum albumin [13] = target: T2, cynomolgus serum albumin; assay: as above
Description: as §1

mouse serum albumin [14] = target: T3, mouse serum albumin; assay: as above
Description: as §1

human serum albumin [15] = target: T1, human serum albumin; assay: SPR (Biacore T200), albumin amine-coupled to CM5, Affimer analyte, pH 7.4
Description: (§4) Affinities for mouse, human, and cynomolgus serum were also measured at pH 7.4 for four (4) AFFIMER® binders using surface plasmon resonance (SPR) (FIG. 5, Table 5). […] A concentration titration of AFFIMER® monomers was run as analyte at a flow rate of 30 μl/min or 60 μl/min. Fc2-1, Fc3-1 and Fc4-1 kinetic data was blank subtracted and fit to a 1:1 Langmuir binding model (BIAcore Evalution software; GE) to calculate KD values.

cynomolgus serum albumin [16] = target: T2, cynomolgus serum albumin; assay: as above
Description: as §4

mouse serum albumin [17] = target: T3, mouse serum albumin; assay: as above
Description: as §4

human serum albumin [18] = target: T1, human serum albumin; assay: binding ELISA, coated albumin, pH 7.4
Description: as §2, §3

equine serum albumin = equine serum albumin (equine, UniProt P35747 25-607); assay: binding ELISA, coated albumin, pH 7.4
equine serum albumin, sequence (P35747 25-607 limits assumed): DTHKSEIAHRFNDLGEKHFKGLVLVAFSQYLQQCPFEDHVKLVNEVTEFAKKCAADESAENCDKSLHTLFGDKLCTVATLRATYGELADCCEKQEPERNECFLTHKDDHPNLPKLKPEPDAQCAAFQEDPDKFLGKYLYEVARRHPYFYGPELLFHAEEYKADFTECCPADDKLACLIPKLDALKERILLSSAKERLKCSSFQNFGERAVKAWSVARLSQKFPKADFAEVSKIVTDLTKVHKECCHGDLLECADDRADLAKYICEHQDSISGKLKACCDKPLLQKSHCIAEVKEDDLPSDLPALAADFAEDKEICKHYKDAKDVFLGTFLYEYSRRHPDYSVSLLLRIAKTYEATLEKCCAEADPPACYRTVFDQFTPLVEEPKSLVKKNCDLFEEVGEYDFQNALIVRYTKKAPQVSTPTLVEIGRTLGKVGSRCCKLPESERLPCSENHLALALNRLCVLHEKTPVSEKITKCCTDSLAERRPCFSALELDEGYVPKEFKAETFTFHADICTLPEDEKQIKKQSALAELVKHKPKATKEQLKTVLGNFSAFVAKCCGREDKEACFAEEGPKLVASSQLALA
Description: as §2, §3

cynomolgus serum albumin [19] = target: T2, cynomolgus serum albumin; assay: binding ELISA, coated albumin, pH 7.4
Description: as §2, §3

porcine serum albumin = porcine serum albumin (porcine, UniProt P08835 25-607); assay: binding ELISA, coated albumin, pH 7.4
porcine serum albumin, sequence (P08835 25-607 limits assumed): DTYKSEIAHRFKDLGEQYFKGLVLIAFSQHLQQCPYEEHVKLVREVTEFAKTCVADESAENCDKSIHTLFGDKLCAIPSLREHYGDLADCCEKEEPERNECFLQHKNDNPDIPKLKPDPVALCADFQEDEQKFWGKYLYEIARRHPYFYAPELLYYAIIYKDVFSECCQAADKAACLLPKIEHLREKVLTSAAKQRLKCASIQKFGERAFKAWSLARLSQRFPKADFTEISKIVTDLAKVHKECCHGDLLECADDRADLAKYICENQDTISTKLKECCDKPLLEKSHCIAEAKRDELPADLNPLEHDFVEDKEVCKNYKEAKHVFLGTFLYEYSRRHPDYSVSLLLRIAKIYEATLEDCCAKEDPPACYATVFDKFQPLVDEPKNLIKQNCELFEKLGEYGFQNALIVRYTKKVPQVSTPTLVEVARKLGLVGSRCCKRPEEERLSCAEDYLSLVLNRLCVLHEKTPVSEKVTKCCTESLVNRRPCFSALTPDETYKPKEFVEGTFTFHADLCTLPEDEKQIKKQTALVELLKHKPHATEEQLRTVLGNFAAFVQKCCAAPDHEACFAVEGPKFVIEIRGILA
Description: as §2, §3

rat serum albumin = rat serum albumin (rat, UniProt P02770 25-608); assay: binding ELISA, coated albumin, pH 7.4
rat serum albumin, sequence (P02770 25-608 limits assumed): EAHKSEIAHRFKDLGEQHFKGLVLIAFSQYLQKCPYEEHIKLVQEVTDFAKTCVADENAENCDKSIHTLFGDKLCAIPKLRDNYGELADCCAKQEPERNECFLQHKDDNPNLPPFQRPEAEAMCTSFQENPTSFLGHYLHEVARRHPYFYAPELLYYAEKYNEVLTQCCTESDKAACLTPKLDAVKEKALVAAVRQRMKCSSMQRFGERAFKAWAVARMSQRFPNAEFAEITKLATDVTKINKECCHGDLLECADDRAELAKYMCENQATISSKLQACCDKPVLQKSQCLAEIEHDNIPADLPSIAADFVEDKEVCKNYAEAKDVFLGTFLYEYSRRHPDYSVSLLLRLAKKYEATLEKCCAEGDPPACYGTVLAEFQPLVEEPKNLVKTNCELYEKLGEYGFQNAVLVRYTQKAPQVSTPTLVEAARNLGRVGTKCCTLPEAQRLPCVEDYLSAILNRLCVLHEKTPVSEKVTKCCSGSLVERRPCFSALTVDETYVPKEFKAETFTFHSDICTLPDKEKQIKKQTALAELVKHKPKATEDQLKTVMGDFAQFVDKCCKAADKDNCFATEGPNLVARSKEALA
Description: as §2, §3

canine serum albumin [20] = target: T4, canine serum albumin; assay: binding ELISA, coated albumin, pH 7.4
Description: as §2, §3

rabbit serum albumin = rabbit serum albumin (rabbit, UniProt P49065 25-608); assay: binding ELISA, coated albumin, pH 7.4
rabbit serum albumin, sequence (P49065 25-608 limits assumed): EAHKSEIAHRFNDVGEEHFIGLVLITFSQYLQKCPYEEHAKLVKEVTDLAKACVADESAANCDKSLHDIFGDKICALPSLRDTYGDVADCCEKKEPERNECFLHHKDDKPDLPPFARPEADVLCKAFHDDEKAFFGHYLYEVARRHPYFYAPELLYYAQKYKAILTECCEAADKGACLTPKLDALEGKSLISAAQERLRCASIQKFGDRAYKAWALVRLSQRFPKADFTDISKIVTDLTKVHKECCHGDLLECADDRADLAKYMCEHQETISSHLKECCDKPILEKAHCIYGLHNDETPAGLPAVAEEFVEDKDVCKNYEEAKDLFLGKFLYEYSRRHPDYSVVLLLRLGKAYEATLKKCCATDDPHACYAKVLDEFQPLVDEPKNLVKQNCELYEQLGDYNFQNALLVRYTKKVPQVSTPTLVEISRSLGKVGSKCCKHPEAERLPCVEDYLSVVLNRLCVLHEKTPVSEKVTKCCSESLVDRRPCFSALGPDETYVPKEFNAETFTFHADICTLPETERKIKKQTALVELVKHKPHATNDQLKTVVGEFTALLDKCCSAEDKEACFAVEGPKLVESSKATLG
Description: as §2, §3

human serum albumin [21] = target: T1, human serum albumin; assay: Octet biolayer interferometry, pH 6.0
Description: as §1
(§5) AFFIMER® polypeptides were incubated with AcTEV for 1 hour at 30° C. as recommend by the manufacturer (Invitrogen) and removal of cleaved His tag by binding NiNTA resin (Generon) and collecting the cleaved protein flow through. […] Pharmacokinetic profile of IV-injected His tag cleaved AFFIMER® protein compared to C-terminally His-tagged AFFIMER® protein was evaluated.

cynomolgus serum albumin [22] = target: T2, cynomolgus serum albumin; assay: Octet biolayer interferometry, pH 6.0
Description: as §1, §5

mouse serum albumin [23] = target: T3, mouse serum albumin; assay: Octet biolayer interferometry, pH 6.0
Description: as §1, §5

human serum albumin [24] = target: T1, human serum albumin; assay: Octet biolayer interferometry, pH 7.4
Description: as §1, §5

cynomolgus serum albumin [25] = target: T2, cynomolgus serum albumin; assay: Octet biolayer interferometry, pH 7.4
Description: as §1, §5

mouse serum albumin [26] = target: T3, mouse serum albumin; assay: Octet biolayer interferometry, pH 7.4
Description: as §1, §5

mPD-L1 = target: T5, mPD-L1 (mouse, UniProt Q9EP73 19-238, limits assumed); assay: competition ELISA: mPD-L1 pre-incubated with the AFFIMER polypeptide and added to coated mPD-1; blocked ligand mPD-1
T5 construct: May be the same reagent as the mouse PD-L1-Fc of the Biacore run
T5 sequence (Q9EP73 19-238 limits assumed): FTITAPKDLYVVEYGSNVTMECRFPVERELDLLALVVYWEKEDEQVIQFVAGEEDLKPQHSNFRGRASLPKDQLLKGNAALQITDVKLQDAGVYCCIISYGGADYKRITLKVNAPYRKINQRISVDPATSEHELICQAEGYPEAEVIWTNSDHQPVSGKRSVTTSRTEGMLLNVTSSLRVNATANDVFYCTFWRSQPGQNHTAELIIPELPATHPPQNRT
Description: Briefly, PD-1 was coated overnight on the plate at 1 μg/ml in carbonate buffer. Then plates were saturated using 5% Casein/PBS buffer. […] After saturation, the mix was added to the plates and incubated for 90 minutes. Plates were then washed and the detection polyclonal antibody, biotinylated anti-PD-L1, was added. After washing the plates, streptavidin-HRP was added for 30 minutes. After a final wash, development of the reaction was performed using TMB (Pierce) and the plates were read using a plate reader at 450 nm (FIG. 26C).

[27] = target: T6, human PD-L1-Fc (R&D Systems) chimeric protein (human, UniProt Q9NZQ7 19-239); assay: Biacore single cycle kinetics on human PD-L1 Fc
T6 construct: Bought reagent; also called rhPD-L1-Fc; huPD-L1; Fc part of the bought chimera not given, not described
T6 sequence (Q9NZQ7 19-239, change not shown): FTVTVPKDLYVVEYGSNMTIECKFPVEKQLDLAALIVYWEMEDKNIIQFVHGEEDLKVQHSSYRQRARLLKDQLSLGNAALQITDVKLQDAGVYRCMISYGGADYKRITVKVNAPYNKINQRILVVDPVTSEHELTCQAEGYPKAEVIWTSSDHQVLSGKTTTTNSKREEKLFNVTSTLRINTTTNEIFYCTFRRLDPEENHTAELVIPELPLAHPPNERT

mouse serum albumin [28] = target: T3, mouse serum albumin; assay: binding ELISA on coated MSA, pH 7.4
Description: (§6) After saturation with 5% PBS Casein pH 7.5, plates were washed and a dilution of AFFIMER® trimers or controls were incubated on the plate for 90 minutes. Plates were then washed, and a biotinylated polyclonal antibody anti-cystatin A (R&D Systems) was added for 1 hour. Plates were washed and AFFIMER® ILFs were detected using streptavidin-HRP. After a last washing step, TMB was added for the development of the experiment, and the plates were read at 450 nm.

human serum albumin [29] = target: T1, human serum albumin; assay: binding ELISA on coated HSA, pH 7.4
Description: as §6

human serum albumin [30] = target: T1, human serum albumin; assay: Biacore, immobilised HSA, running buffer pH 7.4
Description: as §4

human serum albumin [31] = target: T1, human serum albumin; assay: Biacore, immobilised HSA, running buffer pH 6.0
From the text: (§7) […] Fc2-1, Fc3-1 and Fc4-1 kinetic data was blank subtracted and fit to a 1:1 Langmuir binding model (BIAcore Evalution software; GE) to calculate KD values.

mouse serum albumin [32] = target: T3, mouse serum albumin; assay: Biacore, immobilised MSA, pH 6.0
From the text: as §7

B1: HSA-36 (designed binder)
chain: MIPRGLSEAKPATPEIQEIVDKVKPQLEEKTNETYGKLEAVQYKTQVLAGHYARYWPGSTNYYIKVRAGDNKYMHLKVFNGPWAQKSKVHQADRVLTGYQVDKNKDDELTGFHHHHHH
B1 showed a Kd (human serum albumin [1]) of 132 nM, a Kd (cynomolgus serum albumin [2]) of 1140 nM and a Kd (mouse serum albumin [3]) of 435 nM. The “EC50 (read off the curve)” value (canine serum albumin [4]) was ~200 nM, the Kd (human serum albumin [5]) was 136 nM and the Kd (cynomolgus serum albumin [6]) was 2600 nM. The Kd (mouse serum albumin [7]) was 244 nM, the “EC50 (read off the curve)” value (human serum albumin [8]) was ~400 nM and the koff (human serum albumin [9]) was 0.00257 s⁻¹. For the same binder, the kon (human serum albumin [9]) was 18900 M⁻¹ s⁻¹, the koff (cynomolgus serum albumin [10]) was 0.0505 s⁻¹ and the kon (mouse serum albumin [11]) was 215000 M⁻¹ s⁻¹. The koff (human serum albumin [12]) was 0.00175 s⁻¹, the kon (human serum albumin [12]) was 15400 M⁻¹ s⁻¹ and the koff (cynomolgus serum albumin [13]) was 0.0123 s⁻¹. For the same binder, the kon (cynomolgus serum albumin [13]) was 10800 M⁻¹ s⁻¹, the koff (mouse serum albumin [14]) was 0.0874 s⁻¹ and the kon (mouse serum albumin [14]) was 200000 M⁻¹ s⁻¹. For the same binder, the Kd (human serum albumin [15]) was 200 nM, the koff (human serum albumin [15]) was 0.00451 s⁻¹ and the kon (human serum albumin [15]) was 22500 M⁻¹ s⁻¹. It also gave a Kd (cynomolgus serum albumin [16]) of 1510 nM, a koff (cynomolgus serum albumin [16]) of 0.16 s⁻¹ and a kon (cynomolgus serum albumin [16]) of 106000 M⁻¹ s⁻¹. For the same binder, the Kd (mouse serum albumin [17]) was 207 nM, the koff (mouse serum albumin [17]) was 0.15 s⁻¹ and the kon (mouse serum albumin [17]) was 726000 M⁻¹ s⁻¹. For the same binder, the EC50 (human serum albumin [18]) was 687 nM, the EC50 (equine serum albumin) was 662 nM and the EC50 (cynomolgus serum albumin [19]) was 447 nM. The EC50 (porcine serum albumin) was 268 nM, the EC50 (rat serum albumin) was 9.73 nM and the EC50 (canine serum albumin [20]) was 383 nM. For the same binder, the EC50 (rabbit serum albumin) was 863 nM.

B2: HSA-41, C-terminal 6x His tag cleaved (designed binder)
chain: MIPRGLSEAKPATPEIQEIVDKVKPQLEEKTNETYGKLEAVQYKTQVLANFFQRRWPGSTNYYIKVRAGDNKYMHLKVFNGPWKFRNTDRGADRVLTGYQVDKNKDDELTGFEQKLISEEDL
notes: also called His tag cleaved AFFIMER protein; C-terminally His tag cleaved AFFIMER lead clone
With B2 the Kd (human serum albumin [21]) was 4.71 nM, the Kd (cynomolgus serum albumin [22]) was 189 nM and the Kd (mouse serum albumin [23]) was 38.1 nM. For the same binder, the Kd (human serum albumin [24]) was 7.65 nM, the Kd (cynomolgus serum albumin [25]) was 280 nM and the Kd (mouse serum albumin [26]) was 104 nM.

B3: AVA04-182 (designed binder)
chain: MIPRGLSEAKPATPEIQEIVDKVKPQLEEKTNETYGKLEAVQYKTQVLAFALPEFEYMSTNYYIKVRAGDNKYMHLKVFNGPPMIRRKNEVADRVLTGYQVDKNKDDELTGF
notes: also called its control
B3 showed an IC50 (mPD-L1) of 112 nM.

B4: AVA04-251 XT60 (designed binder)
chain: MIPRGLSEAKPATPEIQEIVDKVKPQLEEKTNETYGKLEAVQYKTQVLAREGRQDWVLSTNYYIKVRAGDNKYMHLKVFNGPWVPFPHQQLADRVLTGYQVDKNKDDELTGFAEAAAKEAAAKEAAAKEAAAKEAAAKEAAAKMIPRGLSEAKPATPEIQEIVDKVKPQLEEKTNETYGKLEAVQYKTQVLAREGRQDWVLSTNYYIKVRAGDNKYMHLKVFNGPWVPFPHQQLADRVLTGYQVDKNKDDELTGFAEAAAKEAAAKEAAAKEAAAKEAAAKEAAAKMIPRGLSEAKPATPEIQEIVDKVKPQLEEKTNETYGKLEAVQYKTQVLADWWQAKWPHSTNYYIKVRAGDNKYMHLKVFNGPYKVHQSSGGADRVLTGYQVDKNKDDELTGFHHHHHH
For B4, the Kd [27] was 0.558 nM, the koff [27] was 0.000331 s⁻¹ and the kon [27] was 594000 M⁻¹ s⁻¹. For the same binder, the EC50 (mouse serum albumin [28]) was 134 nM, the EC50 (human serum albumin [29]) was 5.7 nM and the Kd (human serum albumin [30]) was 661 nM. For the same binder, the koff (human serum albumin [30]) was 0.00846 s⁻¹, the kon (human serum albumin [30]) was 12800 M⁻¹ s⁻¹ and the Kd (human serum albumin [31]) was 67.8 nM. For the same binder, the koff (human serum albumin [31]) was 0.00339 s⁻¹, the kon (human serum albumin [31]) was 50100 M⁻¹ s⁻¹ and the Kd (mouse serum albumin [32]) was 108 nM. For the same binder, the koff (mouse serum albumin [32]) was 0.0326 s⁻¹ and the kon (mouse serum albumin [32]) was 301000 M⁻¹ s⁻¹.
